Measurements: patent US10370443B2, “Method of treating autoimmune disease by administering antibodies to interleukin-6” (Fountain Biopharma Inc., priority 2012, dated 2019)
Changes are numbered by the printed parent chain. “Also recorded” adds a separate entry of the source.

B1: 1-4-62: parent fully-human anti-IL6 antibody clone; HC CDR3 SEQ ID NO: 6, LC CDR3 SEQ ID NO: 13 (antibody, V domains shown)
VH: EVQLVESGPALVKPTQTLTLTCTFSGFSLSTGGMSVSWIRQPPGKALEWLARIDWDDDKFYTPSLKTRLTISRDTSKNQVVLIMTNMDPVDTATYYCARMHIDDSNGYYSDAFHIWGQGTMVTVSS
VL: EIVLTQSPATLSVSPGERVTLSCRDSQSVSSTSLAWYQQKSGQAPRLLIYDTSNRATGIPARFSGGGSGTDFTLTISSLEPEDFAVYYCLVRNNWPPRFTFGQGTKVEIK
B2: HAg1T-3-10: affinity-matured fully-human anti-IL6 antibody; HC CDR3 SEQ ID NO: 16, LC CDR3 SEQ ID NO: 15 (antibody, V domains shown)
VH: B1 VH with Y109F
VL: B1 VL with L90S, V91F, R92V, N93S, N94R, W95P, P96Y
B3: Ag1-4-6: affinity-matured fully-human anti-IL6 antibody; HC CDR3 SEQ ID NO: 6, LC CDR3 SEQ ID NO: 15 (antibody, V domains shown)
VH: B1 VH
VL: B1 VL with L90S, V91F, R92V, N93S, N94R, W95P, P96Y

Columns and labels:
BxPC-3 tumor = test: Xenograft human pancreatic tumor model; assay type: in vivo, mice; conditions: BxPC-3 tumor sections, FIGS. 6E and 6F
Description: (iv) Xenograft Human Pancreatic Tumor Model Human pancreatic tumor cells BxPC-3 and MiaPaCa cells were re-suspended in PBS and injected subcutaneously (s.c.) (5×10^6 cells, total volume 0.15 mL) into the right flank of mice. […] Mice body weights and the tumor sizes were measured twice a week. Tumor sizes were measured using a caliper, and the tumor volume was calculated by […]. After the experiment, all mice were sacrificed, mice blood samples were collected and the tumor masses were removed and weighted. The differences in mean tumor volume and tumor weight were evaluated by Student's t-test. […] Results (i) FB704 Inhibits In Vivo Angiogenesis in a Matrigel Assay
FB704 enhanced the anti-tumor activity of Oxaliplatin or Gemcitabine in a human pancreatic cancer model.

[1] = tested on: IL6-induced phosphorylated STAT3 in U266 cells; test: Cell signaling transduction assay (P-STAT3 western blot); assay type: cell-based, human; conditions: for STAT3 phosphorylation inhibition percentage of control: rhIL6; for suppression of phosphorylated-STAT3 signaling: western blot, FIG. 1A/1B
Description: U266 cells (1×10^6/ml) were washed twice with serum-free RPMI 1640 and cultured for 2 h in the absence of fetal bovine serum and growth factors. Cells were stimulated with rhIL6 (5 ng/ml) for 30 min at 37° C. and then treated with or without anti-IL6 antibodies. Cells were washed with ice-cold PBS, and then lysed in RIPA buffer (Thermo) supplemented with protease and phosphatase inhibitor (Roche). Western blot analysis was performed using anti-pSTAT3, and anti-STAT3 (Cell Signaling Technology) antibodies. After incubating with HRP-labeled goat anti-rabbit (Thermo) or HRP-labeled goat anti-mouse antibody (Thermo), the membranes were developed by enhanced chemiluminescence (GE Healthcare).
Human multiple myeloma U266 cells were used to examine the effect of anti-IL6 antibodies on IL6-induced signaling cascade. U266 cells were cultured in the presence or absent of antibodies, together with rhIL6. After 30 minutes, whole cell lysates were collected and western blot analysis was performed to examine phosphorylated STAT3 protein (P-STAT3), which is a major transcription factor involved in the IL6 signaling pathway. […] (FIGS. 1A and 1B).

[2] = tested on: human prostate cancer PC-3 cell; test: Prostate PC3 tumor metastasis and cachexia, intrasplenic implantation model; conditions: for total body weights (cachexia): day 31 after PC-3 implantation, 20 mg/kg i.v. twice a week, P<0.01; for symptom-free survival of PC3 tumor-bearing mice: repetitive injections, Kaplan-Meier, FIG. 5B
Description: The body weights of those mice were measured twice a week.
All mice were then euthanized by CO2 asphyxiation and body weights were determined. Primary tumors in the spleen and liver were excised, photographed, and weighed. Organ index was expressed as milligram organ per gram mouse. Mean+SD were calculated using Student's t-test. The survival assay was used Kaplan-Meier analysis. Paraffin-embedded or frozen section of tumor masses were prepared and stained by anti-CD31 and Ki-67 plus Hematoxylin staining for analysis.
To verify the efficacy of FB704 on cancer induced cachexia and metastasis, mice were implanted with human prostate cancer PC-3 cell (1.0×10^6 per mouse) by intrasplenic injection. On day 1, the mice were randomized into 4 groups (n=12-15). High (20 mg/kg) and low (5 mg/kg) dose of FB704, positive control Actemra (20 mg/kg) and PBS were administered via i.v. (intravenous) injection twice a week.

recombinant human IL6 = molecular target: T1, recombinant human IL6 (Homo sapiens, UniProt P05231); test: BIAcore analysis of IgG binding affinity; conditions: for Ka: association rate constant, captured IgG, BIAcore T200; for Kd: dissociation rate constant
T1 construct: purchased R&D Systems
T1 sequence (P05231 30-212): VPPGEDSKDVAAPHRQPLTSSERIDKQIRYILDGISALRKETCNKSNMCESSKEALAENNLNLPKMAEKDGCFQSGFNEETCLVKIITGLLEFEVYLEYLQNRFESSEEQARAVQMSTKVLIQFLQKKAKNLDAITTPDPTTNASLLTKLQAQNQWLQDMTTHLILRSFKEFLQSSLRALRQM
Description: IgG binding affinity was measured by using human antibody capture kit (GE healthcare) in BIAcore T200 system (GE healthcare). The mouse anti-human IgG was immobilized on a CMS sensor chip via amine coupling. Approximately 700 RU of purified anti-IL6 IgG in HBS-EP+ buffer were captured onto the immobilized surface. The recombinant human IL6 (R&D Systems) at concentrations ranging from 25.6 nM to 0.4 nM in HBS-EP+ buffer was injected for 2 minutes using a flow rate of 30 μl/min. Dissociation of bound antigen in HBS^−EP^+ buffer flow was followed for 7 minutes. The surfaces IgG were regenerated after each cycle using regeneration solution (3M MgCl2). The dissociation constant (KD) was calculated as kd/ka.

[3] = tested on: IL6 plus sIL6R induced MCP-1 and sICAM-1 in HUVECs; test: MCP-1 and sICAM-1 production in HUVEC cells (ELISA); assay type: cell-based, human; conditions: 24 h; for inhibition of IL6+sIL6R induced MCP-1 secretion: FIG. 2A; for inhibition of sICAM-1 production: FIG. 2B
Description: To examine the effectiveness of the anti-IL6 antibodies described herein in treating rheumatoid arthritis (RA), monocyte chemotactic protein-1 (MCP-1) and sICAM-1 secretion by Human Umbilical Vein Endothelial Cells (HUVECs) were measured after antibody treatment as follows. The HUVEC cells were plated in a 48-well plate at a density of 2×10^5 cells/ml. The cells were treated with a combination of recombinant human IL6, IL6 receptor-α (R&D systems) with or without anti-IL6 antibodies at various concentrations or the control IgG antibody at 37° C. for 24 h. Cell free culture supernatants were collected and analysis for MCP-1 and sICAM-1 by ELISA (RayBiotech)

[4] = tested on: IL6-induced MCP-1 in PBMC cells; test: MCP-1 production in human PBMC; assay type: cell-based; conditions: PBMC of five healthy donors, IL6 100 ng/ml, 24 h, FIG. 7B
Description: Further, PBMCs were isolated from five healthy donors. The cells (5×10^5 cells/250 μl/well) were cultured with IL6 (100 ng/ml) for 24 h in a 96-well U-bottomed culture plates (Corning, Corning, N.Y.) containing RPMI1640 in the presence of anti-IL6 antibodies at different concentrations. The levels of MCP-1 in the supernatant were measured by MCP-1 ELISA kits (e Bioscience).

[5] = tested on: hIL6-induced angiogenesis; test: Matrigel angiogenesis assay; assay type: in vivo, mice; conditions: listed as FB704
Description: Liquid matrigel (BD Biosciences) was maintained at 4° C. hIL6 recombinant protein (R&D Systems) was added to Matrigel to a final concentration of 100 ng/0.5 ml. […] Then, the mice were treated with anti-IL6 IgG antibodies or a control IgG antibody through intravenous injection. On day 6, the mice were euthanized by CO2 asphyxiation. Matrigel plugs were removed, weighed and photographed. To measure hemoglobin levels, the Matrigel plug was lysed with a lysis buffer (1% SDS, 0.5% Triton in PBS) overnight at 4° C. The hemoglobin contents of the plugs were quantitated using Drabkin's reagent (Sigma). The concentrations of hemoglobin in the plugs were determined using a standard curve of bovine hemoglobin (Sigma). Hemoglobin contents were indicated as micrograms hemoglobin per gram Matrigel. Mean+SD were calculated using the Student's unpaired t test; p<0.05 was considered as statistically significant.
The anti-angiogenic ability of FB704 was examined in an in vivo matrigel model as described herein. Six days after the treatment, the mice were scarified mice and hemoglobin concentrations were measured. […] (FIG. 4B).

[6] = tested on: human IL6 and other cytokines (IL6 family and non-IL6 family); test: Specificity analysis ELISA on coated cytokines; assay type: binding; conditions: FIGS. 3A and 3B
Description: Plates were coated with recombinant human IL3, IL4, IL5, IL6, IL11, IL17A, CNTF, OSM, IGF-1 (R&D Systems), IL2, FGF (Prospec), VEGF, TNF-α, EGF (Peprotech) at 2 μg/ml in 0.1M NaHCO3 buffer at 4° C. overnight. After being washed by PBS, the wells were blocked with 1% (w/v) BSA in PBS at RT for 1 h. Purified anti-IL6 antibodies in four-fold serial dilutions at a starting concentration of 2 μg/ml were placed into the wells and incubated at RT for 1 h. The plate was washed in PBS containing 0.1% (w/v) Tween 20 and then probed with HRP-labeled goat anti-human IgG (KPL) diluted 1:10,000 in 1% BSA-PBS for 40 min at RT. The plate was again washed and a TMB substrate solution was added to develop color. Stop solution (1M H2SO4) was then added and the absorption at 450 nm quantitated using VERSA max (Molecular Devices).
An ELISA assay as described herein was performed to confirm the binding specificity of high-affinity anti-IL6 antibodies described herein. Briefly, plates were coated with different cytokines as indicated in FIG. 3A (IL6 family cytokines) and FIG. 3B (non-IL6 family cytokines) and the binding activities of the FB704 antibody clone (i.e. Ag1-4-6) to those cytokines were examined.

Molecule | Ki-67 positive cell rate (BxPC-3 tumor) [%] | total body weights (cachexia) [2] | dissociation rate constants (kd) (recombinant human IL6) [s⁻¹] | Ka (recombinant human IL6) [M⁻¹ s⁻¹] | Kd (recombinant human IL6) [s⁻¹] | inhibition of IL6+sIL6R induced MCP-1 secretion [3] | inhibition of sICAM-1 production [3] | suppression of phosphorylated-STAT3 signaling [1] | suppression of MCP-1 production [4] | also measured
O=C1[O][Pt]2([NH][C@@H]3CCCC[C@H]3[NH]2)[O]C1=O [Oxaliplatin, reference compound] | 14 |  |  |  |  |  |  |  |  | 
Actemra: anti-IL6 receptor humanized antibody, FDA-approved for rheumatoid arthritis, used as a control [reference compound] |  | remained stable |  |  |  |  |  |  |  | STAT3 phosphorylation inhibition percentage of control ([1]; Ab concentration 0.05 μg/ml): 0%; STAT3 phosphorylation inhibition percentage of control ([1]; Ab concentration 0.5 μg/ml): 17%; symptom-free survival of PC3 tumor-bearing mice [2]: significantly prolonged symptom-free survival
B1 |  |  | 0.00166 | 438000 | 0.00166 |  |  |  |  | 
B2 |  |  | 0.0006 | 2.24e+06 | 0.0006 | in a dose dependent manner | in a dose dependent manner | at a level greater than Actemra | inhibited MCP-1 production in a dose dependent manner | inhibition of IL6+sIL6R induced MCP-1 secretion ([3]; listed as Hag1T-3-10): inhibited; inhibition of sICAM-1 production ([3]; listed as Hag1T-3-10): at a level greater than Actemra; suppression of phosphorylated-STAT3 signaling ([1]; listed as HAgT1-3-10): suppressed the STAT3 signaling at a much greater level as compared to control antibody Actemra
B3 | 16 | remained stable |  | 1.61e+06 | 0.00121 | in a dose dependent manner; also recorded: inhibited | in a dose dependent manner; also recorded: at a level greater than Actemra | at a level greater than Actemra; also recorded: suppressed the STAT3 signaling at a much greater level as compared to control antibody Actemra | inhibited MCP-1 production in a dose dependent manner | inhibition of IL6-induced angiogenesis in matrigel plugs ([5]; 6 days after treatment, FIG. 4A): observable difference in color and vessel density; also recorded: inhibited angiogenesis; hemoglobin concentrations in matrigel plugs ([5]; day 6, compared with hIL6, FIG. 4B): significantly reduced the hemoglobin concentrations; also recorded: significantly changed the hemoglobin concentrations; binding activity to coated cytokines (specificity) [6]: high binding activity to human IL6 protein but not to other cytokines; tumor cell infiltration in liver ([2]; gross necropsy, FIG. 5C): moderate tumor cell infiltration; vessel density / CD31 staining on tumor sections ([2]; immunohistochemistry, vs PBS, FIGS. 5D and 5E): significantly decreased; symptom-free survival of PC3 tumor-bearing mice ([2]; listed as FB704): significantly prolonged symptom-free survival; also recorded: significantly better efficacy than Actemra; also recorded: significant better efficacy than Actemra
